Patent US20240294573A1, “CONSTRAINED PEPTIDES” (TearSolutions, Inc., priority 2019, published 2024)
Bridge positions count the residues as written; N and C are the ends. Square brackets hold non-standard residues; d marks the D form. Ends that are not written are not given here. 2‑(7-octenyl)alanine = olefinic alpha-amino acid with 7-octenyl side chain, staple residue; 2‑(4-pentenyl)alanine = 2-(4-pentenyl)alanine

Tests used:
Type in all cases: physicochemical
[1] = Circular dichroism of alkene constrained (stapled) Lacripep acetate salts in citrate buffer (Example 7); conditions: 10 mM sodium citrate buffer pH 6.5, 0.2 mg/mL, 35° C.
Method: (§1) Alkene Constrained Analogs of Lacripep™ (SEQ ID NO:1) were synthesized with N-terminal acetylation and C-terminal amidation as an acetate salt. The compounds were reconstituted in 10 mM sodium citrate buffer, pH 6.5 for circular dichroism, with or without 10 mM n-DodecylPhosphoCholine (DPC). The resulting citric acid buffered solutions were tested for circular dichroism.
(§2) CD spectra were obtained using the Jasco 810 CD/ORD with Fluorescence Monochrometer in a 1 mm quartz cell from Starna Cells, Inc. Spectra were obtained at 35° C. from 250 nm to 190 nm in continuous scanning mode (scanning speed, 100 nm/min; data pitch, 0.1 nm; bandwidth, 1 nm; response time, 4 s) with a nitrogen flow rate of 100 mL/min. An average of 3 spectra were obtained for each sample (N=3).

[2] = Circular dichroism of cysteine disulfide constrained Lacripep acetate salts in citrate buffer (Example 8); conditions: 10 mM sodium citrate buffer pH 6.5, 0.2 mg/mL, 35° C.; for helicity (CD spectra): absence of 10 mM DPC; for negative CD signal between 200 nm and 230 nm: presence of DPC (10 mM)
Method: as §1, with “Cysteine Disulfide” for “Alkene”, “DPC.” for “n-DodecylPhosphoCholine (DPC).”
as §2

[3] = Circular dichroism of Lacripep oleate salt vs acetate salt in citrate buffer (Example 3); conditions: CD, 0.2 mg/mL, 10 mM sodium citrate buffer pH 6.5, 35° C.
Method: Lacripep™ (SEQ ID NO:1) was synthesized either without or with N-terminal acetylation and C-terminal amidation as an acetate salt. The compounds were reconstituted in 10 mM sodium citrate buffer, pH 6.5 for circular dichroism. Lacripep™ synthesized either without or with N-terminal acetylation and C-terminal amidation as an acetate salt was converted to an oleate salt by dissolving 1 equivalent of the Lacripep™ acetate salt and 4 equivalents of oleic acid (one oleic acid per lysine residue in Lacripep™) in a mixture of water buffered with citric acid to pH 6.5. The resulting solutions were then flash frozen and lyophilized under vacuum to remove the more volatile acetic acid. The lyophilized powder is suspended in water and the pH is adjusted to between 6.2 to 6.8 with citric acid and sodium citrate and the osmolality to between 250 to 350 mOsm/kg. […]
as §2, with “An average of 3 spectra were obtained for each sample (N=3).” left out

[4] = Circular dichroism of Lacripep acetate salt vs dodecylphosphocholine form in phosphate buffer (Example 2); conditions: CD, 0.2 mg/ml; for alpha helicity: 10 mM phosphate, 137 mM NaCl, 2.7 mM KCl buffer pH 7.4, 35° C., dpC forms with 10 mM dodecylphosphocholine; for irregular: phosphate buffer pH 7.4, 35° C., 10 mM dodecylphosphocholine
Method: Lacripep™ (SEQ ID NO:1) was synthesized either without (unmodified, KQFIENGSEFAQKLLKKFS) or with (modified, Ac-KQFIENGSEFAQKLLKKFS-NH2)N-terminal acetylation and C-terminal amidation as an acetate salt. The compounds (0.2 mg/ml) were reconstituted in 10 mM phosphate, 137 mM NaCl, 2.7 mM KCl buffer, pH 7.4 with 10 mM dodecylphosphocholine for circular dichroism. CD spectra were obtained using the Jasco 810 CD/ORD with Fluorescence Monochrometer in a 1 mm quartz cell from Starna Cells, Inc. Spectra were obtained at 35° C. from 250 nm to 190 nm in continuous scanning mode (scanning speed, 100 nm/min; data pitch, 0.1 nm; bandwidth, 1 nm; response time, 4 s) with a nitrogen flow rate of 100 mL/min. An average of 3 spectra were obtained for each sample (N=3). Analysis of the dichroism spectra can use methods known in the art, including, DichroWeb: On-line analysis for protein Circular Dichroism spectra; Whitmore, L. and Wallace, B. A. (2008) Biopolymers 89: 392-400; Whitmore, L. and Wallace, B. A. (2004) Nucleic Acids Research 32: W668-673, each of which is incorporated by reference herein in its entirety.

Row | Substance | helicity (CD spectra) [2] | alpha helicity [4] [%] | further results
1 | Ac-KQ [2-(7-octenyl) alanine]-IENGSE-[2-(4-pentenyl) alanine]-AQKLLKKFS-NH2 (Ac-KQ[2‑(7-octenyl)alanine]IENGSE[2‑(4-pentenyl)alanine]AQKLLKKFS-NH2; staple 3-10; listed as Homo sapiens) [SEQ ID NO: 59] |  |  | negative CD signal between 200 nm and 230 nm ([1]; presence of 10 mM DPC): approximately −50 Δε
2 | Ac-KQF C(S-)EN C(S-)SE FAQ KLL KKF S-NH2 (Ac-KQFCENCSEFAQKLLKKFS-NH2; disulfide 4-7; SMILES CC(=O)N[C@@H](CCCCN)C(=O)N[C@@H](CCC(N)=O)C(=O)N[C@@H](Cc1ccccc1)C(=O)N[C@H]1CSSC[C@@H](C(=O)N[C@@H](CO)C(=O)N[C@@H](CCC(=O)O)C(=O)N[C@@H](Cc2ccccc2)C(=O)N[C@@H](C)C(=O)N[C@@H](CCC(N)=O)C(=O)N[C@@H](CCCCN)C(=O)N[C@@H](CC(C)C)C(=O)N[C@@H](CC(C)C)C(=O)N[C@@H](CCCCN)C(=O)N[C@@H](CCCCN)C(=O)N[C@@H](Cc2ccccc2)C(=O)N[C@@H](CO)C(N)=O)NC(=O)[C@H](CC(N)=O)NC(=O)[C@H](CCC(=O)O)NC1=O; listed as Homo sapiens) [SEQ ID NO: 72] | significant helicity |  | negative CD signal between 200 nm and 230 nm [2]: −20 to −30 Δε
3 | Ac-KQF IEN C(S-)SE C(S-)AQ KLL KKF S-NH2 (Ac-KQFIENCSECAQKLLKKFS-NH2; bridge 7-10; not fully specified (bridges); printed as Ac-KQF IEN C(S-)SE C(S-)AQ KLL KKF S-NH2; listed as Homo sapiens) [SEQ ID NO: 70] | significant helicity |  | 
4 | Ac-KQF IEN GSE FAQ KC(S-)L KC(S-)F S-NH2 (Ac-KQFIENGSEFAQKCLKCFS-NH2; disulfide 14-17; SMILES CC[C@H](C)[C@H](NC(=O)[C@H](Cc1ccccc1)NC(=O)[C@H](CCC(N)=O)NC(=O)[C@H](CCCCN)NC(C)=O)C(=O)N[C@@H](CCC(=O)O)C(=O)N[C@@H](CC(N)=O)C(=O)NCC(=O)N[C@@H](CO)C(=O)N[C@@H](CCC(=O)O)C(=O)N[C@@H](Cc1ccccc1)C(=O)N[C@@H](C)C(=O)N[C@@H](CCC(N)=O)C(=O)N[C@@H](CCCCN)C(=O)N[C@H]1CSSC[C@@H](C(=O)N[C@@H](Cc2ccccc2)C(=O)N[C@@H](CO)C(N)=O)NC(=O)[C@H](CCCCN)NC(=O)[C@H](CC(C)C)NC1=O; listed as Homo sapiens) [SEQ ID NO: 69] | significant helicity |  | negative CD signal between 200 nm and 230 nm [2]: −5 to −10 Δε
5 | Ac-KQFIENGSEFAQKLLKKFS-NH2 (listed as Homo sapiens) [Lacripep] | significant helicity |  | helicity (CD spectra) ([1]; absence of 10 mM DPC): little helicity
6 | Ac-KQFIENGSEFAQKLLKKFS-NH2 [modified acetate salt form] (also: acetate salt) [Lacripep with N-terminal acetylation and C-terminal amidation, acetate salt] |  | 28 | alpha helicity [3]: 29%
7 | Ac-KQFIENGSEFAQKLLKKFS-NH2 [modified dpC form] (also: dpC form) [terminally modified Lacripep constrained with 10 mM dodecylphosphocholine] |  | 100 | irregular [4]: 0%
8 | KQFIENGSEFAQKLLKKFS [unmodified acetate salt form] (not fully specified (N-terminus, C-terminus); also: acetate salt) [Lacripep without N-terminal acetylation and C-terminal amidation, acetate salt] |  | 27 | alpha helicity [3]: 28%
9 | KQFIENGSEFAQKLLKKFS [unmodified dpC form] (not fully specified (N-terminus, C-terminus)) [unmodified Lacripep constrained with 10 mM dodecylphosphocholine] |  | 92 | irregular [4]: 8%
